Laboratory results: PMC3150472 (Structure (London, England : 1993), 2011)
*1 amine or outer side, *2 acyl side, *3 side chain or, on linkers, in order; H or OH if unused. Where no end group is shown, it is not given here. [ ]: non-standard residue; d: D form. CEL = Nε-carboxy-ethyl-lysine, CC(NCCCC[C@H](N[*:1])C(=O)[*:2])C(=O)[*:3]; CML = Nε-carboxy-methyl-lysine, O=C([C@H](CCCCNCC(=O)[*:3])N[*:1])[*:2]

Tests used:
RAGE = details: free amino acid, not embedded in a peptide; ref Xie et al., 2008; cited from earlier work
V domain of RAGE = V domain of RAGE (Homo sapiens, UniProt Q15109); experiment: Tryptophan fluorescence titration, wild type V domain; details: single site binding isotherm, 25 °C, pH 6.5, 100 mM NaCl
[1] = biological target: V domain of RAGE (wild type) (human, UniProt Q15109 24-125); experiment: other fluorescence titration
NMR gradient diffusion = biological target: the molecule itself; experiment: NMR gradient diffusion
[2] = biological target: K52A, R98A V domain of RAGE (human, UniProt Q15109 24-125, K52A | R98A); experiment: other fluorescence titration
R98A V domain of RAGE = R98A V domain of RAGE (human, UniProt Q15109 24-125, R98A); experiment: other fluorescence titration
K52A V domain of RAGE = K52A V domain of RAGE (human, UniProt Q15109 24-125, K52A); experiment: other fluorescence titration
K52A V domain of RAGE, sequence (Q15109 24-125 K52A): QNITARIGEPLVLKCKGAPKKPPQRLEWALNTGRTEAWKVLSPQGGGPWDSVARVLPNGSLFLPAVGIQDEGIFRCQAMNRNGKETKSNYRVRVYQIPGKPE

K52A, R98A V domain of RAGE, sequence (Q15109 24-125 K52A/R98A): as the sequence (Q15109 24-125 K52A) above, with R75A counted along it
R98A V domain of RAGE, sequence (Q15109 24-125 R98A): as the sequence (Q15109 24-125 K52A) above, with A29K, R75A counted along it

## CC(NCCCC[C@H](N)C(=O)O)C(=O)O (stereo partly shown) [CEL, Nε-carboxy-ethyl-lysine]
RAGE
  binding to RAGE: do not bind

## N[C@@H](CCCCNCC(=O)O)C(=O)O [CML, Nε-carboxy-methyl-lysine]
RAGE
  binding to RAGE: do not bind

## CC(NCCCC[C@H](NC(=O)[C@H](Cc1ccccc1)NC(=O)[C@H](CCC(=O)O)NC(=O)[C@@H](N)CC(=O)O)C(=O)N[C@@H](C)C(=O)N[C@@H](CC(=O)O)C(=O)N[C@@H](CCC(=O)O)C(=O)O)C(=O)O (stereo partly shown) [DEF(CEL)ADE]
V domain of RAGE
  Kd: 104 ± 5 µM

## CC(C)C[C@H](NC(=O)[C@H](CC(=O)O)NC(=O)[C@H](CCCCNC(C)C(=O)O)NC(=O)[C@@H](N)Cc1ccccc1)C(=O)NCC(=O)N[C@@H](CCC(=O)O)C(=O)N[C@@H](CCC(=O)O)C(=O)O (stereo partly shown) [F(CEL)DLGEE]
V domain of RAGE
  Kd: 93 ± 6 µM

## DEF[CML]ADE [DEF(CML)ADE]
[1]
  Kd: 97 ± 3 µM

## F[CML]DLGEE [F(CML)DLGEE]
[1]
  Kd: 87 ± 5 µM

B1: VC1 domain of RAGE (wild type) (domain or fragment, human, UniProt Q15109 23-243, looked up)
chain: AQNITARIGEPLVLKCKGAPKKPPQRLEWKLNTGRTEAWKVLSPQGGGPWDSVARVLPNGSLFLPAVGIQDEGIFRCQAMNRNGKETKSNYRVRVYQIPGKPEIVDSASELTAGVPNKVGTCVSEGSYPAGTLSWHLDGKPLVPNEKGVSVKEQTRRHPETGLFTLQSELMVTPARGGDPRPTFSCSFSPGLPRHRALRTAPIQPRVWEPVPLEEVQLVVE
NMR gradient diffusion
  binding result: binds

## DEF[CEL]ADE [DEF(CEL)ADE]
[2]
  Kd: 912 ± 42 µM
R98A V domain of RAGE
  Kd: 685 ± 26 µM
K52A V domain of RAGE
  Kd: 560 ± 32 µM
